What was measured:
human IL-2Rβ = target: T1, human IL-2Rβ (human, UniProt P14784 27-240, limits assumed); assay: SPR, fusion captured
T1 construct: also called hIL-2Rβ; IL-2 receptor beta
T1 sequence (looked up): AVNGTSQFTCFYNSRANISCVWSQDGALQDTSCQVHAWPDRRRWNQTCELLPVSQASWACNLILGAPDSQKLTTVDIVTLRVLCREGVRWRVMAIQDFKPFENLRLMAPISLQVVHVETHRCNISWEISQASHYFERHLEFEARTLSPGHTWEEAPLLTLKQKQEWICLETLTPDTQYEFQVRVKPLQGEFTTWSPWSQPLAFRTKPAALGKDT
Method: (§1) Anti-human Fc sensor chips were prepared at 25° C. with a running buffer of 10 mM HEPES, 150 mM NaCl, 0.05% (v/v) Tween-20, pH 7.4. All surfaces of a Biacore CM4 sensor chip were activated with a 1:1 (v/v) mixture of 400 mM EDC and 100 mM NHS for 7 minutes, at a flow rate of 10 μL/min. An anti-human Fc reagent (Goat anti-human IgG Fc-γ specific, SouthernBiotech, Birmingham, Ala., Catalog #2014-01) was diluted to 50 μg/mL in 10 mM sodium acetate (pH 4.5) and injected on all flow cells for 7 minutes at 20 μL/min. All flow cells were blocked with 100 mM ethylenediamine in 200 mM Borate buffer pH 8.5 for 7 minutes at 10 μL/min.
(§2) All protein interaction experiments were performed at 37° C. using a running buffer of 10 mM HEPES, 150 mM NaCl, 0.05% (v/v) Tween-20, pH 7.4, 1 mg/mL BSA. Anti-PD-1-hIL-15 fusion proteins were captured at 10 μg/mL at a flow rate of 10 μL/min for 2 minutes. Different fusion proteins were captured in flow cells 2, 3 and 4. No protein was captured onto flow cell 1 which was used as a reference surface. […] After each analyte injection, dissociation was monitored for 5 minutes followed by regeneration of all flow cells with three 60-second injections of 75 mM phosphoric acid. […] For kinetic analysis, the double-referenced sensorgrams were fit globally to a simple 1:1 Langmuir with mass transport binding model using Biacore T200 Evaluation Software version 2.0. For steady-state affinity analysis, the double-referenced equilibrium binding responses were fit with a 1:1 Langmuir steady-state model using Biacore T200 Evaluation Software version 2.0.

human IL-15Rα = target: T2, human IL-15Rα (human, UniProt Q13261 31-205, limits assumed); assay: SPR 37C, fusion captured by anti-human Fc
T2 construct: also called hIL-15Rα; IL-15 receptor alpha
T2 sequence (Q13261 31-205 limits assumed): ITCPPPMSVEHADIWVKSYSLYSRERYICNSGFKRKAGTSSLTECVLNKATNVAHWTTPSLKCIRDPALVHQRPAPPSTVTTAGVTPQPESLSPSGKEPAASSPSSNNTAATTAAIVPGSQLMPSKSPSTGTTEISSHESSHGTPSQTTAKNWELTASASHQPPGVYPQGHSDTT
Method: as §1, §2

B1: xmPD-1-hIL15 V49R/E46G/E64Q/D30N/M109A (other)
heavy 1: HHHHHHHHGGGGSGSGGEVQLVESGGGLVKPGGSLELSCAASGFTFSSYWMSWVRQAPEKGLEWVAAISPSGGSTYYADSVKGRFTISRDNAKNTLFLQMTSLRSEDTAMYYCAKESWGAYYDLWGQGTTVTVSSASTKGPSVFPLAPCSRSTSESTAALGCLVKDYFPEPVTVSWNSGALTSGVHTFPAVLQSSGLYSLSSVVTVPSSNFGTQTYTCNVDHKPSNTKVDKTVERKCRVRCPRCPAPPVAGPSVFLFPPKPKDTLMISRTPEVTCVVVAVSHEDPEVQFNWYVDGVEVHNAKTKPREEQFNSTFRVVSVLTVVHQDWLNGKEYKCKVSNKGLPSSIEKTISKTKGQPREPQVYTLPPSREEMTKNQVSLTCLVKGFYPSDIAVEWESNGQPENNYKTTPPMLDSDGSFFLYSRLTVDKSRWQQGNVFSCSVMHEALHNHYTQKSLSLSPGK
heavy 2: EVQLVESGGGLVKPGGSLELSCAASGFTFSSYWMSWVRQAPEKGLEWVAAISPSGGSTYYADSVKGRFTISRDNAKNTLFLQMTSLRSEDTAMYYCAKESWGAYYDLWGQGTTVTVSSASTKGPSVFPLAPCSRSTSESTAALGCLVKDYFPEPVTVSWNSGALTSGVHTFPAVLQSSGLYSLSSVVTVPSSNFGTQTYTCNVDHKPSNTKVDKTVERKCEVECPECPAPPVAGPSVFLFPPKPKDTLMISRTPEVTCVVVAVSHEDPEVQFNWYVDGVEVHNAKTKPREEQFNSTFRVVSVLTVVHQDWLNGKEYKCKVSNKGLPSSIEKTISKTKGQPREPQVYTLPPSREEMTKNQVSLTCEVKGFYPSDIAVEWESNGQPENNYKTTPPMLDSDGSFFLYSKLTVDKSRWQQGNVFSCSVMHEALHNHYTQKSLSLSPGSGGGGGTSATATPGANWVNVISDLKKIEDLIQSMHIDATLYTESNVHPSCKVTAMKCFLLGLQRISLESGDASIHDTVQNLIILANNSLSSNGNVTESGCKECEELEEKNIKEFLQSFVHIVQAFINT
light: DIVMTQSPSSLSVSAGDKVTMSCRASQGISSWLAWYQQKPWQPPKLLIYKASTLESGVPDRFTGSGSGTDFTLTISSVQAEDLAVYYCQQSYSTPWTFGGGTKLEIKGTVAAPSVFIFPPSDEQLKSGTASVVCLLNNFYPREAKVQWKVDNALQSGNSQESVTEQDSKDSTYSLSSTLTLSKADYEKHKVYACEVTHQGLSSPVTKSFNRGEC
notes: not restated for this mutant
Kd (human IL-2Rβ): > 3000 nM
binding result (human IL-15Rα): no binding (tested: 3000 nM)

B2: xmPD-1-hIL15 V49R/E46G/N1G/N4Q/D30N (other)
heavy 1: EVQLVESGGGLVKPGGSLELSCAASGFTFSSYWMSWVRQAPEKGLEWVAAISPSGGSTYYADSVKGRFTISRDNAKNTLFLQMTSLRSEDTAMYYCAKESWGAYYDLWGQGTTVTVSSASTKGPSVFPLAPSSKSTSGGTAALGCLVKDYFPEPVTVSWNSGALTSGVHTFPAVLQSSGLYSLSSVVTVPSSSLGTQTYICNVNHKPSNTKVDKKVEPKSCDKTHTCPPCPAPEAAGAPSVFLFPPKPKDTLMISRTPEVTCVVVDVSHEDPEVKFNWYVDGVEVHNAKTKPREEQYNSTYRVVSVLTVLHQDWLNGKEYKCKVSNKALPAPIEKTISKAKGQPREPQVYTLPPCREEMTKNQVSLSCAVKGFYPSDIAVEWESNGQPENNYKTTPPVLDSDGSFFLVSKLTVDKSRWQQGNVFSCSVMHEALHNHYTQKSLSLSPGSGGGGSGGGGSGGGGGWVQVISDLKKIEDLIQSMHIDATLYTESNVHPSCKVTAMKCFLLGLQRISLESGDASIHDTVENLIILANNSLSSNGNVTESGCKECEELEEKNIKEFLQSFVHIVQMFINTS
heavy 2: EVQLVESGGGLVKPGGSLELSCAASGFTFSSYWMSWVRQAPEKGLEWVAAISPSGGSTYYADSVKGRFTISRDNAKNTLFLQMTSLRSEDTAMYYCAKESWGAYYDLWGQGTTVTVSSASTKGPSVFPLAPSSKSTSGGTAALGCLVKDYFPEPVTVSWNSGALTSGVHTFPAVLQSSGLYSLSSVVTVPSSSLGTQTYICNVNHKPSNTKVDKKVEPKSCDKTHTCPPCPAPEAAGAPSVFLFPPKPKDTLMISRTPEVTCVVVDVSHEDPEVKFNWYVDGVEVHNAKTKPREEQYNSTYRVVSVLTVLHQDWLNGKEYKCKVSNKALPAPIEKTISKAKGQPREPQVCTLPPSREEMTKNQVSLWCLVKGFYPSDIAVEWESNGQPENNYKTTPPVLDSDGSFFLYSKLTVDKSRWQQGNVFSCSVMHEALHNHYTQKSLSLSPGK
light: DIVMTQSPSSLSVSAGDKVTMSCRASQGISSWLAWYQQKPWQPPKLLIYKASTLESGVPDRFTGSGSGTDFTLTISSVQAEDLAVYYCQQSYSTPWTFGGGTKLEIKGTVAAPSVFIFPPSDEQLKSGTASVVCLLNNFYPREAKVQWKVDNALQSGNSQESVTEQDSKDSTYSLSSTLTLSKADYEKHKVYACEVTHQGLSSPVTKSFNRGEC
Kd (human IL-2Rβ): > 1500 nM

B3: xmPD-1-hIL15Rasu-hIL15(E64Q/D30N/I68S) (other)
heavy 1: HHHHHHHHGGGGSGSGGEVQLVESGGGLVKPGGSLELSCAASGFTFSSYWMSWVRQAPEKGLEWVAAISPSGGSTYYADSVKGRFTISRDNAKNTLFLQMTSLRSEDTAMYYCAKESWGAYYDLWGQGTTVTVSSASTKGPSVFPLAPCSRSTSESTAALGCLVKDYFPEPVTVSWNSGALTSGVHTFPAVLQSSGLYSLSSVVTVPSSNFGTQTYTCNVDHKPSNTKVDKTVERKCRVRCPRCPAPPVAGPSVFLFPPKPKDTLMISRTPEVTCVVVAVSHEDPEVQFNWYVDGVEVHNAKTKPREEQFNSTFRVVSVLTVVHQDWLNGKEYKCKVSNKGLPSSIEKTISKTKGQPREPQVYTLPPSREEMTKNQVSLTCLVKGFYPSDIAVEWESNGQPENNYKTTPPMLDSDGSFFLYSRLTVDKSRWQQGNVFSCSVMHEALHNHYTQKSLSLSPGK
heavy 2: EVQLVESGGGLVKPGGSLELSCAASGFTFSSYWMSWVRQAPEKGLEWVAAISPSGGSTYYADSVKGRFTISRDNAKNTLFLQMTSLRSEDTAMYYCAKESWGAYYDLWGQGTTVTVSSASTKGPSVFPLAPCSRSTSESTAALGCLVKDYFPEPVTVSWNSGALTSGVHTFPAVLQSSGLYSLSSVVTVPSSNFGTQTYTCNVDHKPSNTKVDKTVERKCEVECPECPAPPVAGPSVFLFPPKPKDTLMISRTPEVTCVVVAVSHEDPEVQFNWYVDGVEVHNAKTKPREEQFNSTFRVVSVLTVVHQDWLNGKEYKCKVSNKGLPSSIEKTISKTKGQPREPQVYTLPPSREEMTKNQVSLTCEVKGFYPSDIAVEWESNGQPENNYKTTPPMLDSDGSFFLYSKLTVDKSRWQQGNVFSCSVMHEALHNHYTQKSLSLSPGSGGGGGTSATATPGAITCPPPMSVEHADIWVKSYSLYSRERYICNSGFKRKAGTSSLTECVLNKATNVAHWTTPSLKCIRDPALVHQRPAPPSGGSGGGGSGGGSGGGGSGGNWVNVISDLKKIEDLIQSMHIDATLYTESNVHPSCKVTAMKCFLLELQVISLESGDASIHDTVQNLISLANNSLSSNGNVTESGCKECEELEEKNIKEFLQSFVHIVQMFINT
light: DIVMTQSPSSLSVSAGDKVTMSCRASQGISSWLAWYQQKPWQPPKLLIYKASTLESGVPDRFTGSGSGTDFTLTISSVQAEDLAVYYCQQSYSTPWTFGGGTKLEIKGTVAAPSVFIFPPSDEQLKSGTASVVCLLNNFYPREAKVQWKVDNALQSGNSQESVTEQDSKDSTYSLSSTLTLSKADYEKHKVYACEVTHQGLSSPVTKSFNRGEC
notes: not restated for this mutant
Kd (human IL-2Rβ): > 3000 nM
binding result (human IL-15Rα): no binding (tested: 3000 nM)

B4: xmPD-1-hIL15Rasu-hIL15(E64Q/D30N/I68S/M109A) (other)
heavy 1: HHHHHHHHGGGGSGSGGEVQLVESGGGLVKPGGSLELSCAASGFTFSSYWMSWVRQAPEKGLEWVAAISPSGGSTYYADSVKGRFTISRDNAKNTLFLQMTSLRSEDTAMYYCAKESWGAYYDLWGQGTTVTVSSASTKGPSVFPLAPCSRSTSESTAALGCLVKDYFPEPVTVSWNSGALTSGVHTFPAVLQSSGLYSLSSVVTVPSSNFGTQTYTCNVDHKPSNTKVDKTVERKCRVRCPRCPAPPVAGPSVFLFPPKPKDTLMISRTPEVTCVVVAVSHEDPEVQFNWYVDGVEVHNAKTKPREEQFNSTFRVVSVLTVVHQDWLNGKEYKCKVSNKGLPSSIEKTISKTKGQPREPQVYTLPPSREEMTKNQVSLTCLVKGFYPSDIAVEWESNGQPENNYKTTPPMLDSDGSFFLYSRLTVDKSRWQQGNVFSCSVMHEALHNHYTQKSLSLSPGK
heavy 2: EVQLVESGGGLVKPGGSLELSCAASGFTFSSYWMSWVRQAPEKGLEWVAAISPSGGSTYYADSVKGRFTISRDNAKNTLFLQMTSLRSEDTAMYYCAKESWGAYYDLWGQGTTVTVSSASTKGPSVFPLAPCSRSTSESTAALGCLVKDYFPEPVTVSWNSGALTSGVHTFPAVLQSSGLYSLSSVVTVPSSNFGTQTYTCNVDHKPSNTKVDKTVERKCEVECPECPAPPVAGPSVFLFPPKPKDTLMISRTPEVTCVVVAVSHEDPEVQFNWYVDGVEVHNAKTKPREEQFNSTFRVVSVLTVVHQDWLNGKEYKCKVSNKGLPSSIEKTISKTKGQPREPQVYTLPPSREEMTKNQVSLTCEVKGFYPSDIAVEWESNGQPENNYKTTPPMLDSDGSFFLYSKLTVDKSRWQQGNVFSCSVMHEALHNHYTQKSLSLSPGSGGGGGTSATATPGAITCPPPMSVEHADIWVKSYSLYSRERYICNSGFKRKAGTSSLTECVLNKATNVAHWTTPSLKCIRDPALVHQRPAPPSGGSGGGGSGGGSGGGGSGGNWVNVISDLKKIEDLIQSMHIDATLYTESNVHPSCKVTAMKCFLLELQVISLESGDASIHDTVQNLISLANNSLSSNGNVTESGCKECEELEEKNIKEFLQSFVHIVQAFINT
light: DIVMTQSPSSLSVSAGDKVTMSCRASQGISSWLAWYQQKPWQPPKLLIYKASTLESGVPDRFTGSGSGTDFTLTISSVQAEDLAVYYCQQSYSTPWTFGGGTKLEIKGTVAAPSVFIFPPSDEQLKSGTASVVCLLNNFYPREAKVQWKVDNALQSGNSQESVTEQDSKDSTYSLSSTLTLSKADYEKHKVYACEVTHQGLSSPVTKSFNRGEC
notes: not restated for this mutant
Kd (human IL-2Rβ): > 1500 nM
binding result (human IL-15Rα): no binding (tested: 3000 nM)
